Data reported in patent publication US20150239980A1 (NEOTOPE BOSCIENCES, published 2015).

Legend:
recombinant hMCAM-His [1] = target: T1, recombinant hMCAM-His (human, UniProt P43121 24-559); assay: summary of ForteBio, hMCAM-His; vs rodent 2120
T1 construct: not shown: His tag
T1 chain: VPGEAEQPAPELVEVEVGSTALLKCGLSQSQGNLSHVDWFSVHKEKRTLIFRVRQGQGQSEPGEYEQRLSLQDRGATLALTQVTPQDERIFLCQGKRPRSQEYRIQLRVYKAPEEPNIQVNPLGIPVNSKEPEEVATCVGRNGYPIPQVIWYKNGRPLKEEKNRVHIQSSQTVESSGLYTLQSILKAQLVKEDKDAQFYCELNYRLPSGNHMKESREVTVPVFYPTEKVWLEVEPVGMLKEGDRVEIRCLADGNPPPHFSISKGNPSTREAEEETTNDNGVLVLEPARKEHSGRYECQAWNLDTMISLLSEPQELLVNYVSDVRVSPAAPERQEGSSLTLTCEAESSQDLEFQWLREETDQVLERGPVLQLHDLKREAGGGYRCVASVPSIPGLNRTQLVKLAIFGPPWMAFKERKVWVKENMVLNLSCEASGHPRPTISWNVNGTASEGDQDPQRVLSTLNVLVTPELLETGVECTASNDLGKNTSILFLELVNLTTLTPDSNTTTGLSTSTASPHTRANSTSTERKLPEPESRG
Experimental: (§1) The affinities were measured using the ForteBio Octet Red. Anti-human Fc sensors were used to capture the humanized antibodies, and several concentrations of hMCAMHis analyte were used to determine the affinity using a 1:1 fitting model.

recombinant hMCAM-His [2] = target: T1, recombinant hMCAM-His; assay: ForteBio Octet Red, hMCAM-His analyte; Forte column 1; vs rodent 2120
Experimental: as §1

[3] = target: T2, human MCAM (melanoma cell adhesion molecule) expressed on transfected CHO cells (human, UniProt P43121 24-646); assay: laminin/FACS on hMCAM CHO cells, competitor laminin 411; Expt#1; vs rodent 2120
T2 construct: also called hMCAM; CD146
T2 chain: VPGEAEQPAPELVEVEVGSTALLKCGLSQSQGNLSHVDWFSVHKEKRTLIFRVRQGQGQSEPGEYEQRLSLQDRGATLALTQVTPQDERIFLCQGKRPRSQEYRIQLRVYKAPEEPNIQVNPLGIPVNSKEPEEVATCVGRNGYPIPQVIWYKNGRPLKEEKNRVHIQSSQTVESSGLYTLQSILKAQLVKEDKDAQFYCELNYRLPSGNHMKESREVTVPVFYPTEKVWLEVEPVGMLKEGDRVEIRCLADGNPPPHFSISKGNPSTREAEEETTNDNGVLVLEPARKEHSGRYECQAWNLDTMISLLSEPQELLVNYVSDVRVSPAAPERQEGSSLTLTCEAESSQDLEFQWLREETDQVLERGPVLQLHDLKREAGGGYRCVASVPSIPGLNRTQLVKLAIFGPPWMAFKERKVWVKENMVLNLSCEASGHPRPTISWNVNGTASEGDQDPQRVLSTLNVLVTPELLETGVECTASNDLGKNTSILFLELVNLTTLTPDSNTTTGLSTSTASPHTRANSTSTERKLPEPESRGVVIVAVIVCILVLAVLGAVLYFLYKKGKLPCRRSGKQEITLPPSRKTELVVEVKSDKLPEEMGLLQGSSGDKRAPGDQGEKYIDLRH
Experimental: (§2) Following incubation for 30-45 minutes, the cells were washed and anti-laminin conjugated to AF650 (NovusBio) was added to detect the bound laminin. The cells were run on a flow cytometer to measure the laminin binding signal.

[4] = target: T2, human MCAM (melanoma cell adhesion …); assay: laminin/FACS on hMCAM CHO cells, competitor laminin 411; Expt#2; vs rodent 2120
Experimental: as §2

recombinant hMCAM-His [5] = target: T1, recombinant hMCAM-His; assay: competitive ELISA on hMCAM-His, competitor biotinylated rodent or chimeric 2120; vs rodent 2120
Experimental: (§3) ELISA plates were coated with recombinant hMCAM-His, and blocked with casein buffer to prevent non-specific binding. Biotinylated rodent or chimeric antibody was added at a subsaturating concentration, in the presence or absence of 3× increasing concentrations of unlabeled competitor (humanized antibody, rodent, or chimeric). After washing to remove unbound antibody, streptavidin HRP was added to allow detection of the biotinylated antibody. The ELISA was developed with TMB substrate and the OD450 was measured. The IC50 of the unlabeled competitor was determined using the GraphPad Prism5 software.

recombinant hMCAM-His [6] = target: T1, recombinant hMCAM-His; assay: ForteBio Octet Red, hMCAM-His analyte; Forte column 1; vs rodent 2107
Experimental: as §1

[7] = target: T2, human MCAM (melanoma cell adhesion …); assay: laminin/FACS on hMCAM CHO cells, competitor laminin 411; Expt#1; vs rodent 2107
Experimental: as §2

recombinant hMCAM-His [8] = target: T1, recombinant hMCAM-His; assay: competitive ELISA on hMCAM-His, competitor biotinylated rodent or chimeric 2107; vs rodent 2107
Experimental: as §3

[9] = target: T2, human MCAM (melanoma cell adhesion …); assay: laminin/FACS on hMCAM CHO cells, competitor laminin 411; Expt#2; reference row with 1.0 is chimeric 2107
Experimental: as §2

recombinant hMCAM-His [10] = target: T1, recombinant hMCAM-His; assay: ForteBio Octet Red, hMCAM-His analyte; Forte column 2; vs rodent 2107
Experimental: as §1

| Binder | fold reduction in affinity as measured by ForteBio (recombinant hMCAM-His [1]) | fold over rodent (Forte affinity) (recombinant hMCAM-His [2]) | fold over rodent (blocking, laminin/FACS) [3] | fold over rodent (blocking, laminin/FACS) [4] | fold over rodent (competitive ELISA) (recombinant hMCAM-His [5]) | fold over rodent (Forte affinity) (recombinant hMCAM-His [6]) | fold over rodent (blocking, laminin/FACS) [7] | fold over rodent (competitive ELISA) (recombinant hMCAM-His [8]) | fold over rodent (blocking, laminin/FACS) [9] | fold over rodent (Forte affinity) (recombinant hMCAM-His [10]) |
| --- | --- | --- | --- | --- | --- | --- | --- | --- | --- | --- |
| h2120_VH1 + h2120_VL1 (antibody, human IgG1, V domains shown) VH: QVTLKESGPVLVKPTETLTLTCTVSGFSLTSNGVSWVRQPPGKALEWIAAISSGGTTYYNSAFKSRLTISRDTSKSQVVLTMTNMDPVDTATYYCARRYGYGWYFDFWGQGTLVTVSS VL: DIQMTQSPSSLSASVGDRVTITCKASQNIYNSLAWYQQKPGKAPKVLIFNANSLQTGIPSRFSGSGSGTDFTLTISSLQPEDFATYYCQQFYSGYTFGQGTKLEIK | > 5 fold | 8.8 fold | 2 fold | 3.5 fold | 3.1 fold | – | – | – | – | – |
| h2120_VH1 + h2120_VL2 (antibody, human IgG1, V domains shown) VH: QVTLKESGPVLVKPTETLTLTCTVSGFSLTSNGVSWVRQPPGKALEWIAAISSGGTTYYNSAFKSRLTISRDTSKSQVVLTMTNMDPVDTATYYCARRYGYGWYFDFWGQGTLVTVSS VL: DIQMTQSPSSLSASVGDRVTITCKASQNIYNSLAWYQQKPGKAPKVLIFNANSLQTGVPSRFSGSGSGTDFTLTISSLQPEDFATYYCQQFYSGYTFGQGTKLEIK | > 5 fold | 10.8 fold | 4.6 fold | 12.6 fold | 3.1 fold | – | – | – | – | – |
| h2120_VH4 + h2120_VL3 (antibody, human IgG1, V domains shown) VH: QVTLKESGPVLVKPTETLTLTCTVSGFSLTSQGVSWVRQPPGKALEWIAAISSGGTTYYNSAFKSRLTISRDTSKSQVVLTMTNMDPVDTATYYCARRYGYGWYFDFWGQGTLVTVSS VL: DIQMTQSPSSLSASVGDRVTINCKASQNIYNSLAWYQQKPGKAPKVLIFNANSLQTGIPSRFSGSGSGTDFTLTISSLQPEDFATYYCQQFYSGYTFGQGTKLEIK | > 5 fold | 17.4 fold | 3.8 fold | 5.6 fold | 5 fold | – | – | – | – | – |
| h2107_VH1 + h2107_VL1 (antibody, human IgG1, V domains shown) VH: QVTLKESGPVLVKPTETLTLTCTVSGFSLTSNGVSWVRQPPGKALEWIAAISSGGSTYYNSAFKSRLTISRDTSKSQVVLTMTNMDPVDTATYYCARHRPFYFDYWGQGTLVTVSS VL: DIQMTQSPSSLSASVGDRVTITCKGSQNIYKSLAWFQQKPGKVPKLLIYDANSLQTGIPSRFSGSGSGTDFTLTISSLQPEDVATYYCQQYYSGYTFGGGTKVEIK | – | – | – | – | – | 12.9 fold | 2.3 fold | 2.1 fold | 2.1 fold | – |
| h2107_VH5 + h2107_VL3 (antibody, human IgG1, V domains shown) VH: QVTLKESGPVLVKPTETLTLTCTVSGFSLTSQGVSWVRQPPGKALEWIAAISSGGSTYYNSAFKSRLTISPDTSKSQVVLTMTNMDPVDTATYYCARHRPFYFDYWGQGTLVTVSS VL: DIQMTQSPSSLSASVGDRVTINCKGSQNIYKSLAWFQQKPGKVPKLLIYDANSLQTGIPSRFSGSGSGTDFTLTISSLQPEDVATYYCQQYYSGYTFGGGTKVEIK | – | – | – | – | – | 33.2 fold | – | 3.4 fold | – | – |
| h2107_VH5 + h2107_VL1 (antibody, human IgG1, V domains shown) VH: QVTLKESGPVLVKPTETLTLTCTVSGFSLTSQGVSWVRQPPGKALEWIAAISSGGSTYYNSAFKSRLTISPDTSKSQVVLTMTNMDPVDTATYYCARHRPFYFDYWGQGTLVTVSS VL: DIQMTQSPSSLSASVGDRVTITCKGSQNIYKSLAWFQQKPGKVPKLLIYDANSLQTGIPSRFSGSGSGTDFTLTISSLQPEDVATYYCQQYYSGYTFGGGTKVEIK | – | – | – | – | – | 28.2 fold | – | 3.7 fold | – | – |
| h2107_VH6 + h2107_VL1 (antibody, human IgG1, V domains shown) VH: QVTLKESGPVLVKPTETLTLTCTVSGFSLTSNAVSWVRQPPGKALEWIAAISSGGSTYYNSAFKSRLTISRDTSKSQVVLTMTNMDPVDTATYYCARHRPFYFDYWGQGTLVTVSS VL: DIQMTQSPSSLSASVGDRVTITCKGSQNIYKSLAWFQQKPGKVPKLLIYDANSLQTGIPSRFSGSGSGTDFTLTISSLQPEDVATYYCQQYYSGYTFGGGTKVEIK | – | – | – | – | – | 36.8 fold | – | 15.3 fold | – | – |
| h2107_VH5 + h2107_VL2 (antibody, human IgG1, V domains shown) VH: QVTLKESGPVLVKPTETLTLTCTVSGFSLTSQGVSWVRQPPGKALEWIAAISSGGSTYYNSAFKSRLTISPDTSKSQVVLTMTNMDPVDTATYYCARHRPFYFDYWGQGTLVTVSS VL: DIQMTQSPSSLSASVGDRVTITCKGSQNIYKSLAWFQLKPGKVPKLLIYDANSLQTGIPSRFSGSGSGTDFTLTISSLQPEDVATYYCQQYYSGYTFGGGTKVEIK | – | – | – | – | – | 5.9 fold | 1.6 fold | 1.3 fold | 1.5 fold | 6 fold |
| h2107_VH1 + h2107_VL3 (antibody, human IgG1, V domains shown) VH: QVTLKESGPVLVKPTETLTLTCTVSGFSLTSNGVSWVRQPPGKALEWIAAISSGGSTYYNSAFKSRLTISRDTSKSQVVLTMTNMDPVDTATYYCARHRPFYFDYWGQGTLVTVSS VL: DIQMTQSPSSLSASVGDRVTINCKGSQNIYKSLAWFQQKPGKVPKLLIYDANSLQTGIPSRFSGSGSGTDFTLTISSLQPEDVATYYCQQYYSGYTFGGGTKVEIK | – | – | – | – | – | 16.3 fold | 2.6 fold | 2.3 fold | 2 fold | – |
| h2107_VH6 + h2107_VL2 (antibody, human IgG1, V domains shown) VH: QVTLKESGPVLVKPTETLTLTCTVSGFSLTSNAVSWVRQPPGKALEWIAAISSGGSTYYNSAFKSRLTISRDTSKSQVVLTMTNMDPVDTATYYCARHRPFYFDYWGQGTLVTVSS VL: DIQMTQSPSSLSASVGDRVTITCKGSQNIYKSLAWFQLKPGKVPKLLIYDANSLQTGIPSRFSGSGSGTDFTLTISSLQPEDVATYYCQQYYSGYTFGGGTKVEIK | – | – | – | – | – | 5.2 fold | 4.8 fold | 3.5 fold | 2.3 fold | 5.5 fold |
| h2107_VH6 + h2107_VL3 (antibody, human IgG1, V domains shown) VH: QVTLKESGPVLVKPTETLTLTCTVSGFSLTSNAVSWVRQPPGKALEWIAAISSGGSTYYNSAFKSRLTISRDTSKSQVVLTMTNMDPVDTATYYCARHRPFYFDYWGQGTLVTVSS VL: DIQMTQSPSSLSASVGDRVTINCKGSQNIYKSLAWFQQKPGKVPKLLIYDANSLQTGIPSRFSGSGSGTDFTLTISSLQPEDVATYYCQQYYSGYTFGGGTKVEIK | – | – | – | – | – | 22.1 fold | – | 9.9 fold | – | – |
